Measured values reported in patent US20250282885A1 (VST BIO, published 2025).

Key:
human Sdc2 [1] = target: T1, human Sdc2 (human, UniProt P34741 19-144, limits assumed); experiment: Octet tandem binning; saturating Ab m4 19844-R4M-P1-A10
T1 construct: Antigen of the Octet tandem binning, loaded on biosensors at 100 nM; also called huSdc2; hSdc2
Procedure, shortened: (§1)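 Each competing antibody (5 μg/ml, 180 s) is tested on Sdc2-loaded sensors (antigen at 100 nM) already saturated with another antibody (25 μg/ml, 240 s). Its response is expressed relative to binding without prior saturation.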

mouse Sdc2 [2] = target: T2, mouse Sdc2 (mouse, UniProt P43407 19-145, limits assumed); experiment: Octet BLI, heading box over the sensorgram
T2 construct: Immobilised on Maxisorp plates for panning and ELISA; also called mSdc2; moSdc2
T2 sequence (P43407 19-145 limits assumed): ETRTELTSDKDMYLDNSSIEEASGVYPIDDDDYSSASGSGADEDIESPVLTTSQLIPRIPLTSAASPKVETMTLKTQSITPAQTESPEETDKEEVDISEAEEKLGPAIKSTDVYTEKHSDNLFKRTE

human Sdc2 [3] = target: T1, human Sdc2; experiment: Octet tandem binning; saturating Ab f6 19844-R3-P3-E09
Procedure, shortened: as §1

human Sdc2 [4] = target: T1, human Sdc2; experiment: Octet tandem binning; saturating Ab f7 19844-R3-P3-A12
human Sdc2 [5] = target: T1, human Sdc2; experiment: Octet tandem binning; saturating Ab f12 19838-6-N03-A
human Sdc2 [6] = target: T1, human Sdc2; experiment: Octet BLI, HIS1K sensor loaded with huSdc2, antibody as sample; Full R2 0.9668
Procedure: In order to characterize the binding affinity and in vivo/in vitro functional ability of the twelve clones generated by the previous studies and disclosed in Table 1, a series of assays were performed on each clone. These assays measured the affinity of each antibody clone for human, pig, and mouse Sdc2 using an Octet® binding assay system. Additionally, the functional ability of each clone to inhibit VEGFA-driven permeability (see Santiago, et al. (2021) J Am Heart Assoc. 10(18):e020521) was assessed in two therapeutic settings: a “prevention” study in which three concentrations of antibody (5 μg/ml, 10 μg/ml, 15 μg/ml, 20 μg/ml, and/or 40 μg/ml depending on the study) were pre-incubated for an hour before administration of 100 ng/ml of VEGFA, and a “treatment” study in which 3 hours of pre-treatment with 100 ng/ml VEGFA were followed by treatment with antibody at 20 μg/ml or 40 μg/ml. Results are shown for 8-G17 in FIG. 8 and FIG. 9, 20-H19-AB in FIG. 10 and FIG. 11 (FIG. 12 for monkey ECs), R3-P3-C11 in FIG. 13 and FIG. 14, R4M-P3-E06 in FIG. 15 and FIG. 16, R3-P3-E09 in FIG. 17 and FIG. 18, R3-P1-C02 in FIG. 19 and FIG. 20, R3-P3-A12 in FIG. 21 and FIG. 22, R4M-P3-A12 in FIG. 23 and FIG. 24, and R4M-P1-A10 in FIG. 25 and FIG. 26.

human Sdc2 [7] = target: T1, human Sdc2; experiment: Octet tandem binning; saturating Ab f9 19838-6-E17-A
mouse Sdc2 [8] = target: T2, mouse Sdc2; experiment: Octet BLI, HIS1K sensor loaded with moSdc2, antibody as sample; Full R2 0.9584

T1 sequence (P34741 19-144 limits assumed): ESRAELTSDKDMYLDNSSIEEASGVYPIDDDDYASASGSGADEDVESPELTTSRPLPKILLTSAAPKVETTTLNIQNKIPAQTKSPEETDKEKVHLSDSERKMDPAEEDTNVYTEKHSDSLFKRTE

B1: R4M-P3-A12 (antibody, human IgG1, kappa, V domains shown)
VH: EVQLVESGGGVVQPGGSLRLSCAASGFTFSDHYMSWIRQAPGKGLEWVSYLSGSGTSIYYADSVKGRFTISRDNAKKSLYLQMNSLRAEDTAVYYCARVGPAAGNAFDIWGQGTMVTVSS
VL: QSVLTQPPSASGTPGQRVTISCSGSSSNIGSNYVYWYQQLPGTAPKLLIYRNNQRPSGVPDRFSGSKSGTSASLAITGLQAEDEADYYCQSYDSSLSGVVFGGGTKLTVLR
- raw competing-Ab binding signal (human Sdc2 [1]): -0.0712
- Kd (mouse Sdc2 [2]): ~0.0116 µM
- raw competing-Ab binding signal (human Sdc2 [3]): -0.0526
- raw competing-Ab binding signal (human Sdc2 [4]): -0.0178
- raw competing-Ab binding signal (human Sdc2 [5]): 0.136
- Kd (human Sdc2 [6]): 0.0144 µM
- koff (human Sdc2 [6]): 0.067 s⁻¹
- kon (human Sdc2 [6]): 4.65e+06 M⁻¹ s⁻¹
- raw competing-Ab binding signal (human Sdc2 [7]): 0.115
- Kd (mouse Sdc2 [8]): 0.0116 µM
- koff (mouse Sdc2 [8]): 0.00914 s⁻¹
- kon (mouse Sdc2 [8]): 3.74e+06 M⁻¹ s⁻¹
